# From the RNAGym collection of RNA variant scans (doi:10.1073/pnas.2313332121)
# Fewer inactive variants are shown than the library holds.
# B1: TPR 5TU (parent)
# chain: GGAUCUUCUCGAUCUAACAAAAAAGACAAAUCUGCCACAAAGCUUGAGAGCAUCUUCGGAUGCAGAGGCGGCAGCCUUCGGUGGCGCGAUAGCGCCAACGUUCUCAACUAUGACACGCAAAACGCGUGCUCCGUUGAAUGGAGUUUAUCAUG
# Variants of: B1
# Test: polymerase ribozyme fitness, log enrichment relative to wild type (log ratio); higher = more active; in vitro selection for triplet polymerase activity
# In short: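 Fitness measures genotype enrichment against wild-type enrichment on a logarithmic scale, with inverse-variance-weighted averaging of replicates. The logarithm is base 2, and genotypes were kept only with ≥10 input reads and ≥1 read per output in Illumina sequencing. The sequenced libraries came from one triplicate in vitro selection round, including frozen incubation at −7 °C, of PCR-built, transcribed mutant libraries of each subunit of a heterodimeric triplet polymerase ribozyme.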
row,Variant,polymerase ribozyme fitness (log ratio)
1,GGAUCUUCUCGGUCUAACAAAAAAGACAAAUCUGCCACAAAGCUUGAGAGCAUCUUUGGAUGCAGAGGCGGCAGCCUUCGGUGGCGUGAUAGCGCCAACGUUGUCAACUAUGACACGCAAAACGCGUGCUCCGUUGAAUGGAGUUUAUCAUG,-2.19
2,GGAUCUUCUCGAUCUAACAAAAAAGACAAAUCUGCCACAAAGCGUGAGAGUAUCUUCGGAUGCAGAGGCGGCAACCUUCGGUGGCGCGAUAGCCCCAACGUUCUCAACUAUGACACGCAUAACGCGUGCUCCGUUGAAUGGAGUUUAUGAUG,≤ -4.2
3,GGAUCUUCGCGAUCUAACAAAAAAGACAAAUCUGUCACAAAGCUUGAGAGCCUCUUCGGAAGCAGAGGCGGCAGCCUUCGGUGGCGAGAUAGCGCCAACGCUCUCAACUAUGACACGCAAAACGAGUGCUCCGUUGAAUGGAGUUUAUCAUG,≤ -4.2
4,GGAUCUUCUCGAUCUAACAAAAAAGACAAAUCCGCCACCAAGCUUGAGAGCAUCUUCGGAUGCAGAGGCGGCAGCCUUCGGUGGCGCAAUAGCGCCAACGUUCUCAACUAUGACACGGAAAAAGCGUGCUCCGUUGAAUGGAGUUUAUCAUG,≤ -4.2
5,GGAUCUUCUCGAUCUAACAAAAAAGACAAAUCUGCCACAAAGCUUGAGAGCAUCUUCGGAUGCAGAGGCGGCAGCCUUCGGUGUCGGGACAGCGCUAACGUUCUCAACUAUGACACGCAAAACGCGUGCUCCGUUGAAUGGAGUGUAUCAUG,≤ -4.2
6,GGAUCUUCUCGAUCUAACAAAAAAGACAAAUCUGCCACAAAGCUUGAGAGCAUCUACCGAUGCAGAGGCGGCAGCCUUCGGUGGCGCGAUAUAGCCAACGUUCUCAACUAUGACACGAAAAACGCGUGCUCCGUUGAAUGGAGUUUAUCAUG,-3.82
7,GGAUCUUCUCGAUCUAACAAAAAAGACAAAUCUGCCACAAAGCUUGAGAGCAUGUUCGGAUGCAGCGGCCGCAGCCUUCGGUGGCGCGAUAGCGCCAACCUUCUCAACUAUGACACGCAAAACGCGUGCUCCGUUGAAUGGAGUUUAUCAUG,≤ -4.2
8,GGAUCUUCUCGAUCUAACAAAAAAGACAAAUCUGUCACAAAGCUUGAGAGCAUCUUCGGAUGCAGAGGCGGCAGACUUCGGUGGCACGAUAGCGCCAACGUUCUCAGCUAUGACACGCAAAACGCGUGCUCCGUUGAAUUGAGUUUAUCAUG,≤ -4.2
9,GGAUCUUCUCGAUCUAACAAAAAAGACAAAUCUGCCACAAAGCUUGAGAGCAUCUUCGGAUGCAGAGGCGGCAGGCUUCGGUGGCGCGAUAGCGCCAACGUUCUCAACUAUGACACGCAAAACGCGUGCUCCGUUGAAUGGUGUUUAUCAUG,-3.7
10,GGAUCUUCUCGAUCUAACAAAAAAGACAAAUCUGCCACAAAGCUUGACAGCAUCUUCGGAUGCAGAGGCGGCAGCCUUCGGUGGAGCGAUAGCGCCAACGUUCUCAACUAUGACACGCAGAACGCGUGCUCCGUUGAAUGGAGUUUAUCAUG,-2.75
11,GGAUCUUCUCGAUCUAACAAAACCGACAAAUCUGCCACAAAGCUUGAGAGCAUCUUCGGAGGCAGAGGCGGCAGCCUUCGGUGGCGCGAUAGCGCCAACGUUCUCAACUUUGACACGCAAAACGCGUGCUCCGUUGAAUGGAGUUUAUCAUG,≤ -4.2
12,GGAUCUUCUCGAUCUAACAAAAAAGACAAAUCUGCCACAAAGCUAGAGAGCAUCUUCGGAUGCAGAGGCGGCAGCUUUCGGUGGCGCGAUAGCGCCAUCCGUCUCUACUAUGACACGCAAAACGCGUGCUCCGUUGAAUGGAGUUUAUCAUG,-4
13,GGAUCUUCUCGAUCUAACAAAAAAGACAAAUCUGCCACAAAGCUUGAGAGCGUCUUCGGAUGCAGAGGCGGCAGCCUUCGGUGGCGCGAUAGCGCCAACGUGCUCAACUAUGACACGCAAAACACGUGCUCCGUUGAAUGGAGUUUAUCAUG,-3.08
14,GGAUCUUCUCGAUCUAACAAAAAAGGCAAAUCUGCCACGAAGCUUGAGAGCAUCUUCGGAUGCAGAGGCGGCAGCCUUCGGUGGUGCGAUAGCGCCAACGUUCUCAACUAUGACACGCAAAACGCGUGCUCCGUUGAAUGGAGUUUAUCAUG,≤ -4.2
15,GGAUCUUCUCGAUCUAACAAAAAAGACAAAUCUGCCACAAAGCUUGAGAGCAUCUUCGGAUGCAGAGACGGCAGCCUUCGGUGGCGCGAUAGCGCUAACGUUCUCAACUAUGACACGCAAAACGCGUGCUCGGUUGAAUGGAGUUUAUCAUG,≤ -4.2
16,GGACCUUCUCGAUCUAACAAAAGAGACAAAUCUGCCACAAAGCUUGAGAGCAUCUUCGGAUGCAGAGGCGGCAGCCUUCGGUGGUGCGAUAGCGCCAUCGUUCUCAACUAUGACACACUAAACGCGUGCUCCGUUGAAUGUAGUUUAUCAUG,≤ -4.2
17,GGAUCGUCUCGAUCUAACAAAAAAGACAAAUCUGCCACAAAGCUUGAGCGUAUCUUCGGAUGCAGAGGCGGCAGCCUUCGGUGGCGCAAUAGCGCCAACGUUCUCAUCUAUGACACGCAAAACGCGUGCUCCGUUGAAUGGGGUUUAUCAUG,≤ -4.2
18,GGAUCUUCUCGAUCUAACAAAAAAGACAAAUCUGCCACAAAGCUUGAGAGCAUCUUCGGAUGCAGAGGCGGGAGCCUUCGGUGGGGCGAUAGCGCCAACGUUCUCAACUAUGACACGCAAAACGCGUGCUCCGUUGAAUGGAGUUUAUCAUG,≤ -4.2
19,GGAUCUUCUCGAUCUAACAAAAAAGACAAAUCUGCCACAAAGCUUGAAAGCAUCUUCGUAUGCAGAGGCGGCAGCCUUCGGUGGCGCGAUAGCACCAACGUUCUCAACUAUGAAACGCAAAACGAGUGCUCCGUUGAAUGGAGUUUAUCAUG,≤ -4.2
